The results in this text go back to patent publication US5985836A, “Alpha-1 proteinase inhibitor binding peptides” (Bayer Corporation, priority 1998, dated 1999).

In assay [1] the target is T1, A1PI (Homo sapiens, UniProt P01009).
T1 construct: Human plasma is currently the only approved source of therapeutic AlPI
Briefly: Purification of A1PI from Effluent II+III on peptide column, A1PI mass balance. In kind it is binding. Conditions: Table 13, 1 ml Eff. II+III, 4° C. On the procedure:
Sequences 1-11 and 15 were assayed with Effluent II+III (Eff. II+III). Eff. II+III is a process intermediate in the Cohn plasma fractionation process. The feed stream contains 20% (by volume) ethanol, 20-25 mg/ml hSA and approximately 1 mg/ml AlPI. The stream also contains other proteins including anti-thrombin III (AT3), immunoglobin G (IgG), immunoglobin A (IgA), apolipoprotein alpha-1 (Apo A-1), transferrin (Trf), haptoglobin (Hpt), and alpha-1 acid glycoprotein (AAG) at concentrations ranging from 0.1-1 mg/ml.
The columns were assayed using the same technique as the hSA+AlPI experiments, allowing for a 10 minute residence time followed by a constant flow rate of 865 μl/min with step elutions of 1M NaCl, 3M NaCl, and 2% acetic acid. All experiments were conducted at 4° C. The mass balances for the injection of 1 ml Eff. […] The AlPI was enriched from 3% of the total protein in the feed to upwards of 50% in the acid eluate.

In assay [2] the target is T1, A1PI. Briefly: A1PI binding on peptide-resin column, injection of 1 mg A1PI in equilibration buffer. The note with it: for % of Total A1PI Eluted by Fraction (Based on Absorbance at 280 nm), 1M NaCl / % of Total A1PI Eluted by Fraction (Based on Absorbance at 280 nm), 2% Acetic Acid / % of Total A1PI Eluted by Fraction (Based on Absorbance at 280 nm), Flowthrough: VIFLVR point mutations, 1 mg A1PI; for Percent AlPI Eluted by Fraction, 1M NaCl / Percent AlPI Eluted by Fraction, 2% Acetic Acid / Percent AlPI Eluted by Fraction, Flowthrough: sequence order, 1 mg AlPI; for Percent A1PI Eluted by Fraction Based on Absorbance at 280 nm, 1M NaCl / Percent A1PI Eluted by Fraction Based on Absorbance at 280 nm, 2% Acetic Acid / Percent A1PI Eluted by Fraction Based on Absorbance at 280 nm, Flowthrough / Percent A1PI Eluted by Fraction, 1M NaCl / Percent A1PI Eluted by Fraction, 2% Acetic Acid / Percent A1PI Eluted by Fraction, Flowthrough: 1 mg A1PI in equilibration buffer. On the procedure: (§1) Confirmatory binding assays were performed in a column chromatographic format on a microbore HPLC using individual peptide sequences synthesized directly onto the Toyopearl 650 M Chelate resin which had been modified with Totda followed by an alanine residue (A-Totda-Toyopearl), at a final substitution density of 0.1 mmole/g resin. The resin was packed into 0.4×5 cm columns (Thomson, Springfield, Va.) and tested on the Michrom HPLC system (Michrom BioResources, Auburn, Calif.). The elution program for all trials utilized the following method. The column was pre-equilibrated with equilibration buffer (as above). 1 ml of sample was injected and allowed sufficient time to flowthrough the column using equilibration buffer. The column was then washed with step elutions of 1M NaCl and 3M NaCl in equilibration buffer. The column was exposed to equilibration buffer with 0.1M NaCl. Any remaining protein was eluted with elution buffer (2% by volume glacial acetic acid in water).
(§2) A Gilson FC204 fraction collector at the HPLC outlet collected individual eluates for further analysis. Fractions collected from the 2% acetic acid eluates were neutralized with 2M Tris, pH 10.5 to bring the pH to neutrality. The protein samples were reconstituted in equilibration buffer unless otherwise stated. The samples were analyzed by the integration of the absorbance at 280 nm or by immunonephelometry. The specific method of determination is presented for each figure.
Tables 2 and 3 present the elution profiles for 19 sequences based on the injection of 1 mg AlPI in equilibration buffer at 4° C. and 20° C., respectively. The columns were run at a constant flow rate of865 μl/min (413 cm/hr) or 523 μl/min (250 cm/hr). No dependence of the elution profile with flow rate was found. The Percent AlPI Eluted by Fraction represents the amount eluted in the flowthrough, 1M NaCl wash, and 2% acetic acid fractions relative to the total AlPI eluted. The percentages are based on either the integration of the peak areas at […]

Assay [3] deals with T1, A1PI. Nature of the assay: A1PI purification from 5 mg hSA + 1 mg A1PI on peptide column, A1PI mass balance. Conditions: A1PI, 5 mg hSA + 1 mg A1PI. Type of assay: binding. On the procedure: as §1, §2
Columns were assayed with a mixture of 5 mg human serum albumin (hSA)+1 mg AlPI at 4° C. (Table 4, Seq. ID 1-11, 15, 17) and 20° C. (Table 5, Seq. ID 1-10, 13, 15, 17). The chromatography method was modified to provide for a 10 minute residence time of sample in the column by decreasing the flow to 17 μl/min (10 cm/hr) upon injection. Following the incubation, the flow was set at 865 μl/min (413 cm/hr) for the step elutions of 1M NaCl, 3M NaCl, and 2% acetic acid. The mass balances presented are based upon immunonephelometry. The Percent Eluted value is protein-specific and based on the amount of the protein eluted in a […]

Where [4] appears, read: Table 19, 4° C., * Below detection limit.
The mark [5] stands for this setting: Table 19, 4° C., relative to total loaded.
Setting [6] is: Table 19, 20° C., * Below detection limit.
The mark [7] stands for this setting: Table 19, 20° C., relative to total loaded.
Where [8] appears, read: 20° C., * Below detection limit.
The mark [9] stands for this setting: 20° C., relative to total eluted.
Setting [10] is: 4° C., relative to total eluted.

Ends that are not written are not given here.

T1 sequence (P01009 25-418): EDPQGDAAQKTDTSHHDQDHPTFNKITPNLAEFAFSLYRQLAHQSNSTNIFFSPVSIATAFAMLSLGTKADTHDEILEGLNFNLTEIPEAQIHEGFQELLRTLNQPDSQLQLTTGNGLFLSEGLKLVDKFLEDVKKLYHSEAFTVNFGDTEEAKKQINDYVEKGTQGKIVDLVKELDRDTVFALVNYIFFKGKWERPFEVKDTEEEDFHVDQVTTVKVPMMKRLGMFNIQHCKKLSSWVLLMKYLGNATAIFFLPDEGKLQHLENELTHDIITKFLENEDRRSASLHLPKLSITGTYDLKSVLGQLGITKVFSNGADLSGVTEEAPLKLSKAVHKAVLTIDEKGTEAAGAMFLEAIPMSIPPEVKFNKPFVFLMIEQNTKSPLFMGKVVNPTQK

With “K I F L V R: point mutation of VIFLVR, position 1 (KIFLVR)”, in the assay with A1PI [1] (* Below detection limit), the “Mass A1PI per Eluate Fraction, 1M NaCl” value was determined as 0.03 mg; the “Mass A1PI per Eluate Fraction, 2% Acetic Acid” value is 0.51 mg; the “Mass A1PI per Eluate Fraction, Flowthrough” value is listed as 0.32 mg. In addition, in the assay with A1PI [1] (A1PI), the “Percent Eluted by Fraction, 1M NaCl” value was determined as 3%; the “Percent Eluted by Fraction, 2% Acetic Acid” value is given as 59%; the “Percent Eluted by Fraction, Flowthrough” value is 38%. In addition, in the assay with A1PI [2] (4° C.), the “% of Total A1PI Eluted by Fraction (Based on Absorbance at 280 nm), 1M NaCl” value was determined as 3%; the “% of Total A1PI Eluted by Fraction (Based on Absorbance at 280 nm), 2% Acetic Acid” value amounted to 97%; the “% of Total A1PI Eluted by Fraction (Based on Absorbance at 280 nm), Flowthrough” value was 0%. For the same substance, in the assay with A1PI [2] (20° C.), the “% of Total A1PI Eluted by Fraction (Based on Absorbance at 280 nm), 1M NaCl” value came out at 0%; the “% of Total A1PI Eluted by Fraction (Based on Absorbance at 280 nm), 2% Acetic Acid” value came to 100%; the “% of Total A1PI Eluted by Fraction (Based on Absorbance at 280 nm), Flowthrough” value turned out to be 0%.
With RVLFIV: reversed sequence of VIFLVR, the “binding of AlPI (in words)” value with A1PI [2] is on record as “excellent binding”. Besides, in the assay with A1PI [2] (4° C.), the “Percent AlPI Eluted by Fraction, 1M NaCl” value came to 27%; the “Percent AlPI Eluted by Fraction, 2% Acetic Acid” value is 65%; the “Percent AlPI Eluted by Fraction, Flowthrough” value turned out to be 8%. Also, in the assay with A1PI [2] (20° C.), the “Percent AlPI Eluted by Fraction, 1M NaCl” value is given as 3%; the “Percent AlPI Eluted by Fraction, 2% Acetic Acid” value was 90%; the “Percent AlPI Eluted by Fraction, Flowthrough” value is reported as 7%. For the same substance, in the assay with A1PI [3] (setting [4]), the “Mass Protein per Eluate Fraction, 1M NaCl” value turned out to be 0.11 mg; the “Mass Protein per Eluate Fraction, 2% Acetic Acid” value came out at 0.25 mg; the “Mass Protein per Eluate Fraction, Flow” value was found to be 0.48 mg. Besides, in the assay with A1PI [3] (setting [5]), the “Percent Eluted by Fraction, 1M NaCl” value was 13%; the “Percent Eluted by Fraction, 2% Acetic Acid” value came out at 30%; the “Percent Eluted by Fraction, 3M NaCl” value is 0%; the “Percent Eluted by Fraction, Flow” value was found to be 57%. Moreover, in the assay with A1PI [3] (setting [6]), the “Mass Protein per Eluate Fraction, 1M NaCl” value is listed as 0.04 mg; the “Mass Protein per Eluate Fraction, 2% Acetic Acid” value came out at 0.54 mg; the “Mass Protein per Eluate Fraction, Flow” value came to 0.22 mg. In the assay with A1PI [3] (setting [7]), the “Percent Eluted by Fraction, 1M NaCl” value came to 5%; the “Percent Eluted by Fraction, 2% Acetic Acid” value was 68%; the “Percent Eluted by Fraction, 3M NaCl” value is listed as 0%; the “Percent Eluted by Fraction, Flow” value was 28%.
For WIKWTK, in the assay with A1PI [2] (4° C.), the “Percent A1PI Eluted by Fraction Based on Absorbance at 280 nm, 1M NaCl” value was determined as 100%; the “Percent A1PI Eluted by Fraction Based on Absorbance at 280 nm, 2% Acetic Acid” value was found to be 0%; the “Percent A1PI Eluted by Fraction Based on Absorbance at 280 nm, Flowthrough” value is listed as 0%. In the assay with A1PI [2] (20° C.), the “Percent A1PI Eluted by Fraction, 1M NaCl” value is given as 91%; the “Percent A1PI Eluted by Fraction, 2% Acetic Acid” value is 2%; the “Percent A1PI Eluted by Fraction, Flowthrough” value was found to be 7%. Besides, in the assay with A1PI [3] (setting [8]), the “Mass Protein per Eluate Fraction, 1M NaCl” value is listed as 0.80 mg and the “Mass Protein per Eluate Fraction, Flow” value came to 0.02 mg. Further, in the assay with A1PI [3] (setting [9]), the “Percent Eluted by Fraction, 1M NaCl” value is reported as 97%; the “Percent Eluted by Fraction, 2% Ac. Acid” value was found to be 0%; the “Percent Eluted by Fraction, 3M NaCl” value is reported as 0%; the “Percent Eluted by Fraction, Flow” value came to 3%.
As for WKLWRW, in the assay with A1PI [2] (4° C.), the “Percent A1PI Eluted by Fraction Based on Absorbance at 280 nm, 1M NaCl” value is 80%; the “Percent A1PI Eluted by Fraction Based on Absorbance at 280 nm, 2% Acetic Acid” value is on record as 20%; the “Percent A1PI Eluted by Fraction Based on Absorbance at 280 nm, Flowthrough” value is 0%. Besides, in the assay with A1PI [2] (20° C.), the “Percent A1PI Eluted by Fraction, 1M NaCl” value is given as 67%; the “Percent A1PI Eluted by Fraction, 2% Acetic Acid” value was 33%; the “Percent A1PI Eluted by Fraction, Flowthrough” value was determined as 0%. Besides, in the assay with A1PI [3] (4° C., * Below detection limit), the “Mass Protein per Eluate Fraction, 1M NaCl” value came to 0.44 mg; the “Mass Protein per Eluate Fraction, 2% Ac. Acid” value is reported as 0.06 mg; the “Mass Protein per Eluate Fraction, Flow” value is given as 0.17 mg. Moreover, in the assay with A1PI [3] (setting [10]), the “Percent Eluted by Fraction, 1M NaCl” value was 66%; the “Percent Eluted by Fraction, 2% Ac. Acid” value worked out at 9%; the “Percent Eluted by Fraction, Flow” value turned out to be 25%. Moreover, in the assay with A1PI [3] (setting [8]), the “Mass Protein per Eluate Fraction, 1M NaCl” value is recorded as 0.15 mg; the “Mass Protein per Eluate Fraction, 2% Ac. Acid” value was 0.40 mg; the “Mass Protein per Eluate Fraction, 3M NaCl” value came to 0.05 mg; the “Mass Protein per Eluate Fraction, Flow” value was 0.16 mg. In addition, in the assay with A1PI [3] (setting [9]), the “Percent Eluted by Fraction, 1M NaCl” value is on record as 20%; the “Percent Eluted by Fraction, 2% Ac. Acid” value was determined as 52%; the “Percent Eluted by Fraction, 3M NaCl” value is reported as 7%; the “Percent Eluted by Fraction, Flow” value is 21%.
